This passage reports virus isolate coverage (neutralization breadth), 208-virus panel and IC50 geomean, neutralization of 208-virus panel results from patent US20220227845A1.

In this assay the target is HIV-1 Env of the 208-pseudovirus panel (Table 1). Briefly: cell-based or functional assay.

B1: 35O22 (antibody, V domains shown)
VH: QGQLVQSGAELKKPGASVKISCKTSGYRFNFYHINWIRQTAGRGPEWMGWISPYSGDKNLAPAFQDRVIMTTDTEVPVTSFTSTGAAYMEIRNLKFDDTGTYFCAKGLLRDGSSTWLPYLWGQGTLLTVSS
VL: QSVLTQSASVSGSLGQSVTISCTGPNSVCCSHKSISWYQWPPGRAPTLIIYEDNERAPGISPRFSGYKSYWSAYLTISDLRPEDETTYYCCSYTHNSGCVFGTGTKVSVL
B1 returned a virus isolate coverage (neutralization breadth), 208-virus panel of 45.2%.

B2: PentaNAb2.0 ScFv (10E8v4_S100cF-5X-35O22-5X-N6-5X-PGT121-5X-VRC26.25-His) (scFv)
scFv: SELTQDPAVSVALKQTVTITCRGDSLRSHYASWYQKKPGQAPVLLFYGKNNRPSGIPDRFSGSASGNRASLTITGAQAEDEADYYCSSRDKSGSRLSVFGGGTKLTVLGGGGSGGGGSGGGGSEVRLVESGGGLVKPGGSLRLSCSASGFDFDNAWMTWVRQPPGKGLEWVGRITGPGEGWSVDYAESVKGRFTISRDNTKNTLYLEMNNVRTEDTGYYFCARTGKYYDFWFGYPPGEEYFQDWGQGTLVIVSSGGGGSGGGGSGGGGSGGGGSGGGGSQSVLTQSASVSGSLGQSVTISCTGPNSVCCSHKSISWYQWPPGRAPTLIIYEDNERAPGISPRFSGYKSYWSAYLTISDLRPEDETTYYCCSYTHNSGCVFGTGTKVSVLGGGGSGGGGSGGGGSQGQLVQSGAELKKPGASVKISCKTSGYRFNFYHINWIRQTAGRGPEWMGWISPYSGDKNLAPAFQDRVIMTTDTEVPVTSFTSTGAAYMEIRNLKFDDTGTYFCAKGLLRDGSSTWLPYLWGQGTLLTVSSGGGGSGGGGSGGGGSGGGGSGGGGSYIHVTQSPSSLSVSIGDRVTINCQTSQGVGSDLHWYQHKPGRAPKLLIHHTSSVEDGVPSRFSGSGFHTSFNLTISDLQADDIATYYCQVLQFFGRGSRLHIKGGGGSGGGGSGGGGSRAHLVQSGTAMKKPGASVRVSCQTSGYTFTAHILFWFRQAPGRGLEWVGWIKPQYGAVNFGGGFRDRVTLTRDVYREIAYMDIRGLKPDDTAVYYCARDRSYGDSSWALDAWGQGTTVVVSAGGGGSGGGGSGGGGSGGGGSGGGGSSDISVAPGETARISCGEKSLGSRAVQWYQHRAGQAPSLIIYNNQDRPSGIPERFSGSPDSPFGTTATLTITSVEAGDEADYYCHIWDSRVPTKWVFGGGTTLTVLGGGGSGGGGSGGGGSQMQLQESGPGLVKPSETLSLTCSVSGASISDSYWSWIRRSPGKGLEWIGYVHKSGDTNYSPSLKSRVNLSLDTSKNQVSLSLVAATAADSGKYYCARTLHGRRIYGIVAFNEWFTYFYMDVWGNGTQVTVSSGGGGSGGGGSGGGGSGGGGSGGGGSQSVLTQPPSVSAAPGQKVTISCSGNTSNIGNNFVSWYQQRPGRAPQLLIYETDKRPSGIPDRFSASKSGTSGTLAITGLQTGDEADYYCATWAASLSSARVFGTGTKVIVLVGGGGSGGGGSGGGGSQVQLVESGGGVVQPGTSLRLSCAASQFRFDGYGMHWVRQAPGKGLEWVASISHDGIKKYHAEKVWGRFTISRDNSKNTLYLQMNSLRPEDTALYYCAKDLREDECEEWWSDYYDFGKQLPCAKSRGGLVGIADNWGQGTMVTVSSGSGHHHHHH
For B2, the IC50 geomean, neutralization of 208-virus panel was found to be 6 ng/mL and the virus isolate coverage (neutralization breadth), 208-virus panel was 99.6%.
